According to patent US20240108707A1, “CHAGAS DISEASE VACCINE ANTIGENS WITH IMPROVED STABILITY AND DECREASED AGGREGATION” (Baylor College of Medicine, priority 2019, published 2024):
Read-outs that look alike come from different tables or passages of the source.

Legend:
[1] = Aggregation / stability of on-column refolded protein on storage, stirring and freeze-thaw (visual analysis, SDS-PAGE, Western blot); type: physicochemical; conditions: for aggregation of on-column refolded protein on storage: stored at 4° C. one month, SDS-PAGE (TSA-1-C4: in PBS, also visual analysis, Western blot)
Description: FIG. 4A-C. On-column refolding of TSA-1-NT. A, chromatographic profile of TSA-1-NT refolded by Size Exclusion Chromatography; B, samples were collected and analyzed by SDS-PAGE under non-reducing condition aggregates (a), and refolded protein (b and c); C, refolded TSA1-NT (b) after one month at 4° C. under reducing (lanes 1,3) and non-reducing conditions (lane 2).
FIGS. 10A, B and C. SDS-PAGE analysis of refolded TSA-1 C4 by Size-Exclusion Chromatography. A, the collected fractions of the main peak of seven consecutive refolding batches of denatured TSA-1 C4 (in 1.6×100 XK column packed with 185 ml of Sepharose 6FF) were analyzed by 10% SDS-PAGE under non-reducing conditions; batch1 (Lanes 2 and 3), batch 2 (Lanes 4 and 5), batch 3 (Lanes 6 and 7), batch 4 (Lanes 8 and 9), batch 5 (Lanes 10 and 11), batch 6 (Lanes 12 and 13), batch 7 (Lanes 14 and 15). B, Refolded TSA-1-C4 was stored at 4° C. in refolding buffer (lanes 1,4), Tris-HCl (lanes 2 and 5) and PBS (lanes 3 and 6) buffers. Samples were analyzed by SDS-PAGE under non-reduced conditions before (lanes 1, 2 and 3) and after one month (lanes 4, 5 and 6) of storage at 4° C. C, the stability of refolded TSA-1-C4 was tested by orbital stirring at 25 rpm and 20° C. for 24 (lane 2), 48 (lane 3) and 120 h (lane 4), and by cycles of freezing (−80° C.)-thawing at 24 h (lane 5), 48 (lane6) and (lane 7). Molecular Weight marker (lane 1).
(§1) In order to develop as a recombinant protein vaccine that can be used in humans in endemic areas, the coding DNA for TSA-1-NT was identified and codon optimized for expression in E. coli. The synthesized DNA was cloned into pET41a, a bacterial expression vector with an IPTG inducible T7 promoter. The recombinant TSA-1-NT/pET41a plasmid DNA was transformed into E. coli BL21(DE3). […] The on-column refolded TSA-1-NT was soluble but aggregated when stored at 4° C. one month (FIG. 4C). Aggregation causes problems with reproducibility and consistency, and would prevent the protein from being developed into a vaccine formulation. We hypothesized that the reason for the aggregation was the interaction of four cysteine residues in the sequence of the molecule (C248, C267, C360, C447) that could lead to intermolecular disulfide bridges.
However, and more importantly, and unlike TSA-1 NT, after purification on a nickel column or ion-exchange chromatography (FIGS. 8A and B) and refolding on a size-exclusion column (FIGS. 9A and B). The refolded TSA-1-C4 was concentrated by ultrafiltration, analyzed by SDS-PAGE (FIG. 10A) and it was stable.

[2] = tested on: T. cruzi; conditions: mice; cited from earlier work
[3] = Solubility of recombinant protein expressed in E. coli BL21(DE3) (SDS-PAGE of soluble fraction and inclusion bodies; 8M urea); type: physicochemical; conditions: for solubility of protein as expressed in E. coli: E. coli BL21(DE3), induced with 0.5 mM IPTG
Description: FIGS. 3A and B. SDS-PAGE of expressed wild-type TSA-1-NT in E. coli BL21(DE3) induced with 0.5 mM IPTG from 0-16 hours.
FIGS. 6A and B. SDS-PAGE of expressed TSA-1-C4 in E. coli BL21(DE3) induced with 0.5 mM IPTG over 16 hours.
as §1
The coding DNA for TSA-1-C4 (SEQ ID NO: 5) was codon optimized for expression in E. coli, synthesized by GenScript, and cloned into pET41a with an octahistidine-tag (SEQ ID NO: 11, HHHHHHHH, shaded in FIG. 5A) or without an octahistidine-tag (SEQ ID NO: 3, FIG. 2 and FIG. 5B) expressed at its C-terminus. The recombinant plasmid DNAs were transformed into E. coli BL21(DE3) and selected on LB agar plates containing 30 μg/mL of kanamycin. The correct sequences and reading frames were confirmed by double-strand DNA sequencing with vector flanking primers.

[4] = tested on: H1 Trypanosoma cruzi; assay: Therapeutic vaccine efficacy: parasitemia in H1 Trypanosoma cruzi-infected mice; type: in vivo; conditions: 20 μg antigen IM, acute infection, compared to untreated controls
Description: FIGS. 11A and B. Therapeutic effect of TSA-1-C4 alone or with Tc24-C4 and in a combination with or without benznidazole (BZN) treatment. H1 Trypanosoma cruzi-infected mice were treated with Tc24-C4 and TSA-1-C4, […] and given orally 25 mg/kg BZN per day for 20 days. A, Kinetic parasitemia was recorded each 3 days during the acute infection. Standard bars represent the error of the mean. B, Area under the curve (AUC) was graphed using the simple method of Gagnon. Histograms represent the mean and standard bars the error of the mean.
Briefly, H1 Trypanosoma cruzi-infected mice were treated with Tc24-C4 and TSA-1-C4, 20 μg each and given orally 25 mg/kg BZN per day for 20 days. Kinetic parasitemia was recorded each 3 days during the acute infection (FIG. 11A), and the area under the curve (AUC) was graphed (FIG. 11B).

[5] = cited from earlier work
[6] = tested on: T. cruzi; conditions: formulated with E6020-SE; versus Tc24+E6020-SE; cited from earlier work

Row | Molecule | aggregation of on-column refolded protein on storage [1] | aggregation when compounded into vaccine compositions ([1]; vaccine compositions) | protective immunity [2] | solubility in 8M urea [3] | solubility of protein as expressed in E. coli [3] | aggregation under stirring ([1]; after 120 h under orbital stirring, 25 rpm, 20° C.) | aggregation after cycles of freezing-thawing ([1]; freezing (−80° C.)-thawing at 24, 48 and 120 h) | levels of parasites in the blood (parasitemia, AUC) [4] | solubility of protein as expressed in E. coli ([5]; E. coli (BL21)) | aggregation on storage ([5]; purified protein stored at 4° C. for 9 days, Western blot, light-scattering, HPLC-RP) | protection (mouse survival rate and parasitemia levels in blood) [6]
1 | TSA-1-NT: N-terminal fragment of TSA-1 (aa 30-617), wild-type cysteines [reference compound] | aggregated | aggregates | induces protective immunity | soluble in 8M urea | expressed as insoluble protein in inclusion body |  |  |  |  |  | 
2 | TSA-1-C4: Recombinant T. cruzi TSA-1 fragment, four cysteines mutated to serine (C248S, C267S, C360S, C447S), plus 43 C-terminal amino acids (protein, synthetic recombinant protein based on TSA1 from T. cruzi, Recombinant T. cruzi TSA-1 fragment, four cysteines mutated to serine (C248S, C267S, C360S, C447S), plus 43 C-terminal amino acids) MERNSGDLQLPQEIAMLVPNKTQVVPKSGGEGKVKDIFASPALVRAGGVMIAFVEGRTKNKLFPEVIDLSSSDIVAGYIKAPETWQSLVAEVTKEYWQAHTVLESANNSNHRVGVARLPTGITRGNKVFLLVGSYEERREIDDYIWKAEAWNIKVIEGEATQSTEVQPTQPINWSEPKPLFQTDSPNNKGDLKEFLGGGGSGIVMGNGTLVFPLTAKDESNKVFSLITYSTDDGQKWEIPGGVSSVASRSPRVTEWEEGTLLMVTYSEDGRKVFESRDMGKTWTEAFGTLPGVWLKSGPELPEVSLRVDALITATIEGRKVMLYTQKVRHFLEVDEPNALHLWVTDNNRTFHLGPFSVDSAENKTFANTLLYSDDALHLLQAKGDHESTAVSLARLTEELNTINSVLSTWVQLDASFSESSIPTAGLVGFLSNTTSSGDTWIDGYRSMNATVTKAAKVENGFKFTGPGSRATWPVNSRWDIKQYGFVDYNFTIVAMATIHQVPSESTPLLGASLRGNKRTKLIGLSYGAGGKWETVYDGTKTVQGGTWEPGREYQVALMLQDGNKGFVYVDGVLVGNPAMLPTPEERWTEFSHFYFGGDEGDSGSDATLTDVFLYNRPLSVGELKMIKEVED | No aggregation observed |  |  | soluble in 8M urea | expressed as insoluble protein in inclusion bodies | No aggregation observed | No aggregation observed | significantly lower levels of parasites in the blood |  |  | 
3 | Tc24-C4: Recombinant T. cruzi Tc24 with 4 cysteine residues mutated to serine residues (protein, synthetic recombinant protein based on TSA1 from T. cruzi, Recombinant T. cruzi Tc24 with 4 cysteine residues mutated to serine residues) MGASGSKGSTSDKGLASDKDGKNAKDRKEAWERIRQAIPREKTAEAKQRRIELFKKFDKNETGKLSYDEVHSGSLEVLKLDEFTPRVRDITKRAFDKARALGSKLENKGSEDFVEFLEFRLMLSYIYDFFELTVMFDEIDASGNMLVDEEELKRAVPKLEAWGAKVEDPAALFKELDKNGTGSVTFDEFAAWASAVKLDADGDPDNVPESA |  |  |  |  |  |  |  |  | soluble protein | did not form any aggregation | similarly protected
